This note sets out measurements from patent publication US20250197525A1 (MINOTAUR THERAPEUTICS, published 2025).

The assay deals with T1, IL2/15Rβ and γc receptor subunits (UniProt P31785 23-369, limits assumed).
T1 sequence 1: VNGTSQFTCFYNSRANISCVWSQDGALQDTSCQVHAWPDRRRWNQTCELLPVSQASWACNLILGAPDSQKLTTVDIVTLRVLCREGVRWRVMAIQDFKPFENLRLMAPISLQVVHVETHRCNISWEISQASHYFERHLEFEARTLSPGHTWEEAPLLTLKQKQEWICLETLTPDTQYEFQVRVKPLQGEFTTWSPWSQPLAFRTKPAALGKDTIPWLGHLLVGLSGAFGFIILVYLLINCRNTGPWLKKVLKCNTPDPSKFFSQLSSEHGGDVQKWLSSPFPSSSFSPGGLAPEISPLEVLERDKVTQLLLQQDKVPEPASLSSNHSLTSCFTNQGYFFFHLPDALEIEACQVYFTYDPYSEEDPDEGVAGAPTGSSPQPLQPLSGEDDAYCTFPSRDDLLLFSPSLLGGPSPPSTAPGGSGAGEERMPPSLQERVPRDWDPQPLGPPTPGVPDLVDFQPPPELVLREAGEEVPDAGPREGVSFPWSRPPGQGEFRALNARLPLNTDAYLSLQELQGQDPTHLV
T1 sequence 2: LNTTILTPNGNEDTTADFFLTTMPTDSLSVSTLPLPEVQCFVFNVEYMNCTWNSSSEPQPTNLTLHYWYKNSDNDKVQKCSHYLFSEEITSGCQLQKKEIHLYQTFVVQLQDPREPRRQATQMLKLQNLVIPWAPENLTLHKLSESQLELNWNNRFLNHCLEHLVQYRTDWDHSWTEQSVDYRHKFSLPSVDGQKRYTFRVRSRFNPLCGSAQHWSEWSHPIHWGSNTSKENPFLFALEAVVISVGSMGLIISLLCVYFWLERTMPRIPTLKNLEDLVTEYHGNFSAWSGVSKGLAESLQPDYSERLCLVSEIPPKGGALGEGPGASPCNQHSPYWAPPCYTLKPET
Put plainly: cell-based or functional assay.

B1: B15 Variant 1 (chimeric BLV1H12-IL-15 fusion antibody) (antibody, human IgG1, lambda, L234A L235A)
heavy: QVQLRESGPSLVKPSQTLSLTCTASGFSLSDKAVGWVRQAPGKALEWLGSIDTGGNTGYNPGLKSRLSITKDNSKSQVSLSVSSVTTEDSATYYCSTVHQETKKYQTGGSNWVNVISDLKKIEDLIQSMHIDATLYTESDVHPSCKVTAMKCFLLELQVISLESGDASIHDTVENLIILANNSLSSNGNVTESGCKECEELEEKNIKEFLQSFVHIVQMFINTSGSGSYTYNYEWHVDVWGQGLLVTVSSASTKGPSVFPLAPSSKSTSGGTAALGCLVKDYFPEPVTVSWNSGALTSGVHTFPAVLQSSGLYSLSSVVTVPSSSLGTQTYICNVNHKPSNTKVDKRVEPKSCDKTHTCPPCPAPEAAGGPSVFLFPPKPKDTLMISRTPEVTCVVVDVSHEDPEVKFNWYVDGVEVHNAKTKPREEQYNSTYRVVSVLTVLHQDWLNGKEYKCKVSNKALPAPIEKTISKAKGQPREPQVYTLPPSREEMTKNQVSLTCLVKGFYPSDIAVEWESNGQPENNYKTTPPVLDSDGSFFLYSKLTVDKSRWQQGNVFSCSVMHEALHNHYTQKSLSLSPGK
light: QAVLNQPSSVSGSLGQKVTISCSGSSSNIGNNYVSWYQQLPGTAPKLLIYGDTKRPSGIPDRFSGSKSGTSATLGITGLQTGDEADYYCASAEDSSSNAVFGSGTTLTVLGQPKAAPSVTLFPPSSEELQANKATLVCLISDFYPGAVTVAWKADSSPVKAGVETTTPSKQSNNKYAASSYLSLTPEQWKSHRSYSCQVTHEGSTVEKTVAPTECS
As for B1, the “EC50 (nM), STAT5 inducible SEAP reporter in HEK-Blue IL2 reporter cells” value is 0.032 nM.

B2: B15 Variant 3 (chimeric BLV1H12-IL-15 fusion antibody) (antibody, human IgG1, lambda, L234A L235A)
heavy: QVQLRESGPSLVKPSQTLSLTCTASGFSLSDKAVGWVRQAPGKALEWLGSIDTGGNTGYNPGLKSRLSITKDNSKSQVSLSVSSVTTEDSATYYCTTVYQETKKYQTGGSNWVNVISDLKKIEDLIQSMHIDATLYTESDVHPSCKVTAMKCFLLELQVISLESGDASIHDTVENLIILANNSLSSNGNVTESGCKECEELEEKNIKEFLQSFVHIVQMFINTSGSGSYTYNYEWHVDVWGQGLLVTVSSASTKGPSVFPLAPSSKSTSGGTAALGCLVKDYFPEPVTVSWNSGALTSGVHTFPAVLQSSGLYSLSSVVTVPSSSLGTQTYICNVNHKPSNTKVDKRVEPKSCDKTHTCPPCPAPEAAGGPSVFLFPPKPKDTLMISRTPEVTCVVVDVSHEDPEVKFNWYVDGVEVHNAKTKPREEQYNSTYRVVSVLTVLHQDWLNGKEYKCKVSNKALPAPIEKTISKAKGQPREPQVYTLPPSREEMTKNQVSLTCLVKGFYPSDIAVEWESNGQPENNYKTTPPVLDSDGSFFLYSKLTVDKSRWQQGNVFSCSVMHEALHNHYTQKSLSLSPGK
light: QAVLNQPSSVSGSLGQKVTISCSGSSSNIGNNYVSWYQQLPGTAPKLLIYGDTKRPSGIPDRFSGSKSGTSATLGITGLQTGDEADYYCASAEDSSSNAVFGSGTTLTVLGQPKAAPSVTLFPPSSEELQANKATLVCLISDFYPGAVTVAWKADSSPVKAGVETTTPSKQSNNKYAASSYLSLTPEQWKSHRSYSCQVTHEGSTVEKTVAPTECS
For the molecule B2, the “EC50 (nM), STAT5 inducible SEAP reporter in HEK-Blue IL2 reporter cells” value is 0.026 nM.
